As a reminder, the Km is the substrate concentration at which the rate is half of its maximum. Usually kcat stands for the number of substrate molecules converted per active site and unit of time at saturation. The term kcat/Km denotes the turnover number divided by the Michaelis constant.

In data set [1] the target is T1, UGT76G1 (Stevia rebaudiana, UniProt Q6VAB4).
T1 construct: synthetic gene in pET21a (NdeI/XhoI), C-terminal hexa-histidine tag, E. coli BL21 (DE3), monomer
T1 sequence (Q6VAB4 1-458): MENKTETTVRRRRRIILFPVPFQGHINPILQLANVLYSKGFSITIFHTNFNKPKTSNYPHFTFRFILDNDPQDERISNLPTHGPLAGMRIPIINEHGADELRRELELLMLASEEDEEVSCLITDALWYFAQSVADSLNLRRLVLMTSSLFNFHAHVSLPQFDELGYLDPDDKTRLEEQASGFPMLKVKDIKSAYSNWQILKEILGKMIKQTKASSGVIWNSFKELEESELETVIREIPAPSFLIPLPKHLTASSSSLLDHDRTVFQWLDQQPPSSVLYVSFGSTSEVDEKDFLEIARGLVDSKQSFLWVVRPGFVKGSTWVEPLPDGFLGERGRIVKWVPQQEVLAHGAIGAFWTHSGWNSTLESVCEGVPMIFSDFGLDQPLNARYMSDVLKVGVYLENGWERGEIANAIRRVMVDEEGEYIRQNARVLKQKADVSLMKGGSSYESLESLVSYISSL
The data set can be described thus: X-ray crystal structure. Type of data set: binding.

In data set [2] the target is T2, UGT76G1 (Stevia rebaudiana, UniProt Q6VAB4, H25A).
T2 construct: synthetic gene in pET21a (NdeI/XhoI), C-terminal hexa-histidine tag, E. coli BL21 (DE3), monomer
T2 sequence (Q6VAB4 whole entry H25A): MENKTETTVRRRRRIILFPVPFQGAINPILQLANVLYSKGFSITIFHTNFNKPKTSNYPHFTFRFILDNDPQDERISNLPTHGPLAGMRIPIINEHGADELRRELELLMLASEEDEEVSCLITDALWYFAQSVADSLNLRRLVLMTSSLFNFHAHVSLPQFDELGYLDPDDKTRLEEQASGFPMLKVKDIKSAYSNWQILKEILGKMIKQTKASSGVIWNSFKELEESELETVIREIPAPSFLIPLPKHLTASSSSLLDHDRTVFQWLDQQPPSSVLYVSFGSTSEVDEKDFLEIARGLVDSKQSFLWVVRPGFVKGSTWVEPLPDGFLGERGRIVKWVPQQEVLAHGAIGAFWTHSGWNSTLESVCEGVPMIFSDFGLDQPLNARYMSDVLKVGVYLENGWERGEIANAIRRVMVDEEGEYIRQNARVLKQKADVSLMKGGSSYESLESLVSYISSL
As to the kind of experiment: X-ray crystal structure. Type of data set: binding. The settings on record: sodium citrate pH 5.4, PEG 4000; 1 mM UDP.

Substrate in data set [3]: C=C1C[C@@]23CC[C@H]4[C@@](C)(CCC[C@@]4(C)C(=O)O[C@@H]4O[C@H](CO)[C@@H](O)[C@H](O)[C@H]4O)[C@@H]2CC[C@]1(O[C@@H]1O[C@H](CO)[C@@H](O)[C@H](O)[C@H]1O[C@@H]1O[C@H](CO)[C@@H](O)[C@H](O)[C@H]1O)C3
As to the kind of experiment: purified protein. The settings on record: UDPG 100 μM; transfer at R1 (initial rate, <10% consumption).

Substrate in data set [4]: C=C1C[C@@]23CC[C@H]4[C@@](C)(CCC[C@@]4(C)C(=O)O[C@@H]4O[C@H](CO)[C@@H](O)[C@H](O)[C@H]4O)[C@@H]2CC[C@]1(O[C@@H]1O[C@H](CO)[C@@H](O)[C@H](O[C@@H]2O[C@H](CO)[C@@H](O)[C@H](O)[C@H]2O)[C@H]1O[C@@H]1O[C@H](CO)[C@@H](O)[C@H](O)[C@H]1O)C3
The data set can be described thus: purified protein. The settings on record: UDPG 100 μM; transfer at R2.

Substrate in data set [5]: C=C1C[C@@]23CC[C@H]4[C@@](C)(CCC[C@@]4(C)C(=O)O)[C@@H]2CC[C@]1(O[C@@H]1O[C@H](CO)[C@@H](O)[C@H](O)[C@H]1O[C@@H]1O[C@H](CO)[C@@H](O)[C@H](O)[C@H]1O)C3
As to the kind of experiment: UDP-Glo glycosyltransferase assay, Michaelis-Menten fit. Type of data set: biochemical, Stevia rebaudiana. The settings on record: UDPG 100 μM; transfer at R1. The text has this:
(§1) UDP-Glo glycosyltransferase assay, Michaelis-Menten fit on UGT76G1

Substrate in data set [6]: C=C1C[C@@]23CC[C@H]4[C@@](C)(CCC[C@@]4(C)C(=O)O[C@@H]4O[C@H](CO)[C@@H](O)[C@H](O)[C@H]4O)[C@@H]2CC[C@]1(O[C@@H]1O[C@H](CO)[C@@H](O)[C@H](O)[C@H]1O)C3
The data set is described as above. Type of data set: biochemical, Stevia rebaudiana. The settings on record: UDPG 100 μM; transfer at R1 (initial rate, <10% consumption).
Text: as §1

Substrate in data set [7]: C=C1C[C@@]23CC[C@H]4[C@@](C)(CCC[C@@]4(C)C(=O)O[C@@H]4O[C@H](CO)[C@@H](O)[C@H](O)[C@H]4O[C@@H]4O[C@H](CO)[C@@H](O)[C@H](O)[C@H]4O)[C@@H]2CC[C@]1(O[C@@H]1O[C@H](CO)[C@@H](O)[C@H](O)[C@H]1O[C@@H]1O[C@H](CO)[C@@H](O)[C@H](O)[C@H]1O)C3
The description is as above. Type of data set: biochemical, Stevia rebaudiana. The note with it: UDPG 100 μM; transfer at R1 (initial rate, <10% consumption).
Text: as §1

Substrate in data set [8]: O=c1ccn([C@@H]2O[C@H](CO[P@@](=O)(O)O[P@@](=O)(O)O[C@H]3O[C@H](CO)[C@@H](O)[C@H](O)[C@H]3O)[C@@H](O)[C@H]2O)c(=O)[nH]1
The data set is described as above. Type of data set: biochemical, Stevia rebaudiana. The settings on record: sugar donor; acceptor STB 50 μM.
Text: as §1

As to `C=C1C[C@@]23CC[C@H]4[C@@](C)(CCC[C@@]4(C)C(=O)O[C@@H]4O[C@H](CO)[C@@H](O)[C@H](O)[C@H]4O)[C@@H]2CC[C@]1(O[C@@H]1O[C@H](CO)[C@@H](O)[C@H](O)[C@H]1O)C3` [Rubu], the X-ray crystal structure result at UGT76G1 [1] (ternary complex with UDP, bound at active site, second remote molecule called artifact) is “the wild type with UDP and Rubu”.

On to `O=c1ccn([C@@H]2O[C@H](COP(=O)(O)OP(=O)(O)O)[C@@H](O)[C@H]2O)c(=O)[nH]1` [UDP], for which the X-ray crystal structure result was “both the wild type and H25A mutant of UGT76G1 with UDP” on UGT76G1 [2]; “both the wild type and H25A mutant of UGT76G1 with UDP” at UGT76G1 [1] (sodium citrate pH 5.4, PEG 4000, 1 mM UDP).

B1: UGT76G1 (Stevia rebaudiana) (protein)
chain: MENKTETTVRRRRRIILFPVPFQGHINPILQLANVLYSKGFSITIFHTNFNKPKTSNYPHFTFRFILDNDPQDERISNLPTHGPLAGMRIPIINEHGADELRRELELLMLASEEDEEVSCLITDALWYFAQSVADSLNLRRLVLMTSSLFNFHAHVSLPQFDELGYLDPDDKTRLEEQASGFPMLKVKDIKSAYSNWQILKEILGKMIKQTKASSGVIWNSFKELEESELETVIREIPAPSFLIPLPKHLTASSSSLLDHDRTVFQWLDQQPPSSVLYVSFGSTSEVDEKDFLEIARGLVDSKQSFLWVVRPGFVKGSTWVEPLPDGFLGERGRIVKWVPQQEVLAHGAIGAFWTHSGWNSTLESVCEGVPMIFSDFGLDQPLNARYMSDVLKVGVYLENGWERGEIANAIRRVMVDEEGEYIRQNARVLKQKADVSLMKGGSSYESLESLVSYISSL
notes: synthetic gene in pET21a (NdeI/XhoI), C-terminal hexa-histidine tag, E. coli BL21 (DE3), monomer
As to B1, the Km in “purified protein [3]” is 25.5 ± 3.4 µM; in “purified protein [4]” it was 243.4 ± 28.1 µM; in data set [5], 4.8 ± 0.4 µM; in data set [6], 54.4 ± 4.0 µM; in data set [7], 9.2 ± 0.7 µM; in data set [8] it was 5.6 ± 0.4 µM. Moreover, the turnover number (kcat) is 0.697 s⁻¹ in “purified protein [3]”; 0.002 s⁻¹ in the data set “purified protein [4]”; 0.08 ± 0.00167 s⁻¹ in data set [5]; 0.0983 ± 0.00167 s⁻¹ in data set [6]; 0.355 ± 0.00833 s⁻¹ in data set [7]; 0.0683 ± 0.00167 s⁻¹ in data set [8]. The kcat/Km was determined as 27300 M⁻¹ s⁻¹ in the data set “purified protein [3]”; 8 M⁻¹ s⁻¹ in “purified protein [4]”; 16500 M⁻¹ s⁻¹ in data set [5]; 1800 M⁻¹ s⁻¹ in data set [6]; 38600 M⁻¹ s⁻¹ in data set [7]; 12400 M⁻¹ s⁻¹ in data set [8].

Values taken from paper PMC6642264, “Hydrophobic recognition allows the glycosyltransferase UGT76G1 to catalyze its substrate in two orientations” (Nature Communications, 2019).
